Data on 4 molecules can be found in patent publication US20250136677A1 (ZOETIS SERVICES, published 2025).

In test [1] the target is T1, human IL-31 (human, UniProt Q6EBC2 24-164).
T1 sequence: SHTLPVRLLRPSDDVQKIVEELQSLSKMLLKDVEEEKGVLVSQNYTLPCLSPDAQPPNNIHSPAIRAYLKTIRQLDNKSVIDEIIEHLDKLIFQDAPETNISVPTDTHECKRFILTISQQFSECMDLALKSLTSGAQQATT
The test is described as follows: SPR (Biacore), IL-31 surface, single antibody concentration. Here is the method: (§1) For the indirect ELISA method, antibody binding to wildtype and feline IL-31 15H05 mutant proteins was assessed. All nine canine monoclonal antibodies (ZIL1, ZIL8, ZIL8, ZIL11, ZIL69, ZIL94, ZIL154, ZIL159, and ZIL171) were capable of binding to wildtype feline IL-31 and binding was impacted by mutations in the mAb 15H05 epitope region confirming the correct binding phenotype determined during the initial screening used to identify them. In comparison, the 11E12 antibody bound to the wild-type feline IL-31 and its binding was not impacted by the mutations in the 15H05 epitope region as evidenced by the data in FIG. 4. To confirm binding, biacore analysis was performed using canine, feline, equine, human, feline 15H05 mutant, and feline 11E12 mutant IL-31 proteins as surfaces and a single test concentration of antibody. Similar to ELISA observations, all antibodies tested bound to wildtype feline IL-31. In agreement with the data described above in this section, mouse antibodies 11E12 and 15H05 both bound to canine and feline IL-31 surfaces. Three additional antibodies where shown to have this dual binding property, ZIL69 (partial canine binding), ZIL94, and ZIL159. From this group of nine fully canine antibodies, only ZIL1 and ZIL9 cross-reacted with equine IL-31. Of note, antibody 15H05 was the only one of all assayed herein that bound to canine, feline, and equine IL-31 indicating some level of epitope conservation across the three species. In contrast, none of the antibodies described herein bound to human IL-31. Additional biacore surfaces were used to verify ELISA observations showing differential binding of antibodies to wildtype feline IL-31 and two proteins with mutations in the 15H05 (15H05 mutant) or 11E12 (11E12 mutant) epitopes.
(In general: SPR reads the build-up and loss of mass on a sensor chip optically.)

The target in test [2] is T2, equine IL-31 protein (Equine_IL31) (equine).
T2 construct: Recombinant equine IL-31
T2 chain: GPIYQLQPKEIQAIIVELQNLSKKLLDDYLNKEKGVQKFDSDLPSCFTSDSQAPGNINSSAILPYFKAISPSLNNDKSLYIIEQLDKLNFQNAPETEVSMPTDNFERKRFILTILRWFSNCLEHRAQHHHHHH
Described as above. The protocol: as §1

For test [3], the target named is T3, wildtype feline IL-31 protein (Feline_IL31_wildtype) (feline).
T3 construct: Full length feline IL-31 with C-terminal His tag, secreted from ExpiCHO cells; also called fIL-31
T3 chain: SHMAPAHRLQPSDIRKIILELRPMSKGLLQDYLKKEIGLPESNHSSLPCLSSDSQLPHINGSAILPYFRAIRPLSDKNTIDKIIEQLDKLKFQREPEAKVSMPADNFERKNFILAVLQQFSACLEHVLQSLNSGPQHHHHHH
The test can be described thus: SPR (Biacore), IL-31 on chip, 1:1 fit. An outline of the steps:
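IL-31 was amine-coupled (NHS/EDC) to the chip at 5 μg/mL and quenched with ethanolamine, and candidate mAbs were flowed over it as analytes. Binding curves were fitted to a 1:1 model.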

Test [4] concerns the target T3, wildtype feline IL-31 protein …. The test is described as follows: cell-based or functional assay.
The target of test [5] is T4, canine IL-31 protein (Canine_IL31) (canine).
T4 chain: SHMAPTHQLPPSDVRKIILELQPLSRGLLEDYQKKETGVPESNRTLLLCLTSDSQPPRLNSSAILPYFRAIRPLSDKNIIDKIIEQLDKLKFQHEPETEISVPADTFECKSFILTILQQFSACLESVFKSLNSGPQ
The test can be described thus: SPR (Biacore), IL-31 on chip, 1:1 fit.

Test [6] deals with T5, mutant feline IL-31 15H05 protein (Feline_IL31_15H05_mutant) (feline).
T5 sequence: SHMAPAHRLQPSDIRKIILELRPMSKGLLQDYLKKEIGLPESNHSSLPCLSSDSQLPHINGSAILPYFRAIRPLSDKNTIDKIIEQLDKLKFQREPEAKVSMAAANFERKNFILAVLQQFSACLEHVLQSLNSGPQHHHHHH
The test is described as follows: indirect ELISA, IL-31 protein coated.

Test [7] addresses T3, wildtype feline IL-31 protein …. The test is described as follows: cell-based or functional assay.
The target in test [8] is T4, canine IL-31 protein (Canine_IL31). The test can be described thus: cell-based or functional assay.

B1: ZIL8 (recombinant fully canine antibody) (antibody, V domains shown)
VH: EVQLVESGGDLVKPAGSLRLSCVASGFTFSDYAMSWVRQAPGRGLQWVAGIDSVGSGTSYADAVKGRFTISRDDAKNTLYLQMFNLRAEDTAIYYCASGFPGSFEHWGQGTLVTVSS
VL: QSVLTQPASVSGSLGQKVTISCTGSSSNIGSGYVGWYQQLPGTGPRTLIYYNSDRPSGVPDRFSGSRSGTTATLTISGLQAEDEADYYCSVYDRTFNAVFGGGTHLTVL
notes: also called CAN-ZIL8; copies: 2 + 2
As to B1, the binding result in test [1] and in test [2] was “no binding” in each case.

B2: Feline 11E12 1.1 (antibody, V domains shown)
VH: QVLLVQSGAEVKKPGASVKIFCKASGYSFTYYDINWLRQAPEQGLEWMGWIFPGDGGTKYNETFKGRLTLTADTSTNTVYMELSSLRSADTAMYYCARGGTSVIRDAMDYWGQGALVTVSS
VL: EIQMTQSPSSLSASPGDRVTITCRASESVDNYGISFMHWYQQKPGKVPKLLIYRASNLESGVPSRFSGSGSGTDFTLTISSLEPEDAATYYCQQSNKDPLTFGQGT
notes: Variable chains were subcloned into plasmids with 'the respective feline heavy or kappa constant region'; Made in HEK 293 cells; also called Felinized 11E12 1.1; felinized 11E12
As for B2, in test [3], the dissociation constant (Kd) (commonly the constant that tells how readily two partners part at equilibrium) is 22.2 nM; the koff (commonly the rate constant with which the complex falls apart) came out at 0.000444 s⁻¹; the association rate constant (kon) – broadly, the second-order rate constant of association – turned out to be 20000 M⁻¹ s⁻¹. The “potency against feline IL-31 in the feline FCWF assay (pSTAT3)” value in test [4] is roughly 2 fold. In test [5], the koff is 0.000141 s⁻¹ and the association rate constant (kon) amounted to 185000 M⁻¹ s⁻¹.

B3: ZIL11 (recombinant fully canine antibody) (antibody, V domains shown)
VH: EVQLVESGGDLVKPAGSLRLSCVASGFTFRTYVMNWVRQAPGKGLQWVASINGGGSSPTYADAVRGRFTVSRDNAQNSLFLQMNSLRAEDTAVYFCVVSMVGPFDYWGQGTLVTVSS
VL: SSVLTQPPSVSVSLGQTATISCSGESLSNYYAQWFQQKAGQAPVLVIYKDTERPSGIPDRFSGSSSGNTHTLTISGARAEDEADYYCESAVSSDTIVFGGGTHLTVL
notes: also called CAN-ZIL11; copies: 2 + 2
B3 came in with an ELISA OD in test [6] of 0.33 OD. The binding result in test [1] and in test [2] was “no binding” each time.

B4: mouse:feline 15H05 chimera (antibody)
heavy: QVQLQQSAAELARPGASVKMSCKTSGYTFTSYTIHWIKQRPGQGLEWIGNINPTSGYTENNQRFKDKTTLTVDRSSNTAYLQLHSLTSEDSAVYFCARWGFKYDGEWSFDVWGAGTTVTVSSASTTAPSVFPLAPSCGTTSGATVALACLVLGYFPEPVTVSWNSGALTSGVHTFPAVLQASGLYSLSSMVTVPSSRWLSDTFTCNVAHPPSNTKVDKTVRKTDHPPGPKPCDCPKCPPPEAAGAPSIFIFPPKPKDTLSISRTPEVTCLVVDLGPDDSDVQITWFVDNTQVYTAKTSPREEQFNSTYRVVSVLPILHQDWLKGKEFKCKVNSKSLPSPIERTISKAKGQPHEPQVYVLPPAQEELSRNKVSVTCLIKSFHPPDIAVEWEITGQPEPENNYRTTPPQLDSDGTYFVYSKLSVDRSHWQRGNTYTCSVSHEALHSHHTQKSLTQSPGK
light: DIQMNQSPSSLSASLGDTITVTCRASQGISIWLSWYQQKPGNIPKVLINKASNLHIGVPPRFSGSGSGTHFTLTITSLQPEDIATYYCLQSQTYPLTFGGGTKLEINRSDAQPSVFLFQPSLDELHTGSASIVCILNDFYPKEVNVKWKVDGVVQNKGIQESTTEQNSKDSTYSLSSTLTMSSTEYQSHEKFSCEVTHKSLASTLVKSFQRSECQRE
notes: Mouse variable regions on feline IgG constant regions; made in HEK 293 cells; also called 15H05 mouse feline chimera
In the case of B4, in test [7], the “IC50, inhibition of feline IL-31-induced STAT3 phosphorylation, canine DH82 cells” value was 5.59 µg/mL and the “IC50, inhibition of feline IL-31-induced STAT3 phosphorylation, feline FCWF4 cells” value was found to be 3.25 µg/mL. Also, in test [8], the IC50 against canine IL-31 (pSTAT3; cell type not stated for this pair of values) worked out at 28.6 µg/ml. The “IC50 against feline IL-31 induced pSTAT3 signaling in feline FCWF4 cells, relative to the mouse:feline 11E12 chimera” value in test [4] was roughly 2 fold. Besides, in test [5], the Kd came to 0.0129 nM, the koff was 1.62e-07 s⁻¹ and the association rate constant (kon) was 12600 M⁻¹ s⁻¹.
